Data on one molecule can be found in patent US9486519B2, “Use of FLT3 ligand for enhancing immune responses in RNA immunization” (BioNTech AG, priority 2008, dated 2016).

Test [1] has as its system SIINFEKL epitope-specific CD8+ T cells. As to the kind of experiment: Tetramer and intracellular IFNγ measurement after Flt3-L pretreatment and intranodal RNA immunization. It is filed as in vivo, C57Bl/6 mice. The settings on record: dose above 2×10 μg; data not shown.
The next test has as its system B16 Ova tumors. Description: Therapeutic vaccination against B16 Ova tumors, tumor volume. It is filed as in vivo, C57BL/6 mice. The protocol:
Examination of tumor growth. To this end, four groups (n=10) of C57BL/6 mice were formed. All mice received on day 0 a s.c. injection of B16 Ova tumor cells (2×10^5). Hereof a control group was only treated by IgG4 injection (15 μg; d3, d7, d14, d18). […] The tumor volume was determined after tumor inoculation on a regular basis (d7, d10, d13, d16, d19, d22). The average tumor volume [mm^3] on the days following tumor inoculation [day] is shown.
To this end four groups (n=10) of C57BL/6 mice were formed. All mice received on day 0 a s.c. injection of 2×10^5 B16 Ova tumor cells (Bellone et al., J. Immunol., 2000, 165:2651-2656). Thereof a control group was only treated by injection of IgG4 (15 μg; d3, d7, d14, d18). […] The tumor volume was determined on the following days after tumor inoculation: d7, d10, d13, d16, d19 and d22 (d=day).

In test [2] the test system is cell populations of the murine lymph node. Description: Effects of different Flt3L on the cellular composition in lymph nodes. The settings on record: 0.4 mol i.p. day 0; lymph nodes day 10. It is filed as in vivo, C57BL/6 mice. The source says: On day 10 the lymph nodes of the mice were removed and characterized by flow cytometry. Dendritic cells (DCs (marker: CD11c^+/NK1.1^−)), CD4^+ helper T cells (marker: CD3^+/CD4^+/CD8^−/NK1.1^−), CD8^+ T cells (marker: CD3^+/CD8^+/CD4^−/NK1.1^−), CD19^+ B cells (marker: CD19^+/CD3^−/NK1.1^−).
In this experiment Flt3 ligand (Flt3-IgG4) was compared with commercially available Flt3 preparations with respect to the effect on different cell populations of the murine lymph node. A product recombinantly expressed in bacteria (Peprotech Flt3L; Peprotech, Hamburg, Germany) and a product expressed in human HEK293 cells (Humanzyme Flt3L, Humanzyme; Chicago Ill., U.S.A.) were used as commercially available Flt3 preparations. Human IgG4 (Sigma-Aldrich, Deisenhofen, Germany) served as control.
On day 10 both inguinal lymph nodes of the mice were removed, the cell count determined by means of a Neubauer chamber and the cell populations were characterized by flow cytometry.

B1: Flt3L-IgG4: recombinant human Flt3 ligand prepared as a fusion protein with IgG4, SEQ ID NO: 6, expressed in HEK293 cells (protein)
chain: MTVLAPAWSPTTYLLLLLLLSSGLSGTQDCSFQHSPISSDFAVKIRELSDYLLQDYPVTVASNLQDEELCGGLWRLVLAQRWMERLKTVAGSKMQGLLERVNTEIHFVTKCAFQPPPSCLRFVQTNISRLLQETSEQLVALKPWITRQNFSRCLELQCQPDSSTLPPPWSPRPLEATAPTAPQPPRSPPCPSCPAPEFLGGPSVFLFPPKPKDTLMISRTPEVTCVVVDVSQEDPEVQFNWYVDGVEVHNAKTKPREEQFNSTYRVVSVLTVLHQDWLNGKEYKCKVSNKGLPSSIEKTISKAKGQPREPQVYTLPPSQEEMTKNQVSLTCLVKGFYPSDIAVEWESNGQPENNYKTTPPVLDSDGSFFLYSRLTVDKSRWQEGNVFSCSVMHEALHNHYTQKSLSLSPGK
modifications: Fusionsprotein
In the case of B1, the “immune response on increase of the Flt3-L dose” value in test [1] is reported as “not correlated with a further intensification of the immune response”. Further, the tumor growth result with B16 Ova tumors (Flt3L administration combined with RNA vaccination) was “complete suspension of tumor growth”; in the test on B16 Ova tumors (only Flt3L administered, 15 μg) it was “slight delay of tumor growth”. Moreover, in the test with B16 Ova tumors (tumor volume), the “effect of the combination with intranodal vaccination of RNA” value is recorded as “synergistic effect”. In addition, the “expansion of dendritic cells” value in test [2] is listed as “strong similarity”. Also, in test [2], the “expansion of the lymphocyte populations” value is reported as “tended to be strongest”.
